Among the data in publication PMC11117068 are fold lower C3b binding affinity than the CPV-101 Ile62/Tyr402 variant values, retold here.

The assay addresses complement C3b (UniProt P01024). The experiment in a line: not stated; C3b binding affinity of polymorphic variants, data in Supplementary Table S3.

Consider “moss-produced factor H Val62/His402 variant (from UniProt P08603 19-1231) (natural protein)”, for which the fold lower C3b binding affinity than the CPV-101 Ile62/Tyr402 variant is 1.5 fold.
